In paper PMC4703963, “Oxidative Dimerization of PHD2 is Responsible for its Inactivation and Contributes to Metabolic Reprogramming via HIF-1α Activation” (Scientific Reports, 2016):

B1: Flag-tagged PHD3 (natural protein, human, UniProt Q9H6Z9 1-239, looked up)
chain: MPLGHIMRLDLEKIALEYIVPCLHEVGFCYLDNFLGEVVGDCVLERVKQLHCTGALRDGQLAGPRAGVSKRHLRGDQITWIGGNEEGCEAISFLLSLIDRLVLYCGSRLGKYYVKERSKAMVACYPGNGTGYVRHVDNPNGDGRCITCIYYLNKNWDAKLHGGILRIFPEGKSFIADVEPIFDRLLFFWSDRRNPHEVQPSYATRYAMTVWYFDAEERAEAKKKFRNLTRKTESALTED
notes: PHD3, human; Flag-tagged lentiviral vector from William Kaelin; also called Flag-PHD3; source: U2OS stably expressing (lentiviral vector), in lysate
B2: PHD3, endogenous (natural protein, human (endogenous in U2OS), UniProt Q9H6Z9 1-239, looked up)
chain: B1 chain
notes: PHD3, endogenous in U2OS cells; source: endogenous, U2OS lysate

Biological target: the molecule itself
Assay: non-reducing SDS-PAGE with immunoblot; total cell lysates (1% IGEPAL, 150 mM NaCl, 50 mM Tris-HCl pH 7.9, no reducing agent) in sample buffer without β-ME; cells treated with H2O2 (50-200 uM), T-hydro (1-3 uM), diamide (0.1-1 mM), 10% FBS or expressing H-ras V12

Row | Protein | stoichiometry N
1 | B1 | 2
2 | B2 | 2
